Laboratory results reported in PMC3514286 (PLoS ONE, 2012).

T1: GroES L27A mutant (E. coli, UniProt P0A6F9 1-97, L27A)
T1 sequence: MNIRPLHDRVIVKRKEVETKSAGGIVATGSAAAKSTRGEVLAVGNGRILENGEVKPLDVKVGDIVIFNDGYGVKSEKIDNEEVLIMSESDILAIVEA

T2: GroES (E. coli, UniProt P0A6F9 1-97)
T2 sequence: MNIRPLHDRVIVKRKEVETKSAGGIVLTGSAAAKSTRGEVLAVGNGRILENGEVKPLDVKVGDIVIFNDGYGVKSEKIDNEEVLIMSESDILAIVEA


What was measured:
GroES L27A mutant = molecular target: T1, GroES L27A mutant; assay: cell-based or functional assay
GroES [1] = molecular target: T2, GroES; assay: cell-based or functional assay
mHsp10 L33A mutant = mHsp10 L33A mutant (human, UniProt P61604 1-102, L33A); assay: cell-based or functional assay
[2] = molecular target: mitochondrial Hsp10, hexa-histidine-tagged (human, UniProt P61604 1-102); assay: cell-based or functional assay
GroES [3] = molecular target: T2, GroES; assay: SPR; ProteOn XPR36; GroES or mHsp10 immobilised by amine coupling on a GLC chip; six concentrations of each mHsp60 variant injected; 20 mM Na-HEPES pH 7.5, 100 mM KCl, 10 mM MgCl2, 0.005% Tween, 2 mM ATP; apparent constants from equilibrium analysis; conditions: both partners purified

mHsp10 L33A mutant, sequence (P61604 whole entry L33A): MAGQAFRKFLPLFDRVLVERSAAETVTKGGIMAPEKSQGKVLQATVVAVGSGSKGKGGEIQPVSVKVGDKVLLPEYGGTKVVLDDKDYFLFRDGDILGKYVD
mitochondrial Hsp10, hexa-histidine-tagged, sequence (P61604 whole entry): as the sequence (P61604 whole entry L33A) above, with A33L counted along it

inhibition of the chaperonin's steady-state ATPase activity by co-chaperonin (2:1 co-chaperonin:chaperonin) (GroES L27A mutant) | inhibition of the chaperonin's steady-state ATPase activity by co-chaperonin (2:1 co-chaperonin:chaperonin) (GroES [1]) | inhibition of the chaperonin's steady-state ATPase activity by co-chaperonin (2:1 co-chaperonin:chaperonin) (mHsp10 L33A mutant) | inhibition of the chaperonin's steady-state ATPase activity by co-chaperonin (2:1 co-chaperonin:chaperonin) [2] | KA ratio (apparent KA relative to that of mHsp60 and mHsp10) (GroES [3]) | Binder
0% | 0% | 0% |  |  | human mitochondrial Hsp60, wild type (natural protein, UniProt P10809 27-573, looked up) AKDVKFGADARALMLQGVDLLADAVAVTMGPKGRTVIIEQSWGSPKVTKDGVTVAKSIDLKDKYKNIGAKLVQDVANNTNEEAGDGTTTATVLARSIAKEGFEKISKGANPVEIRRGVMLAVDAVIAELKKQSKPVTTPEEIAQVATISANGDKEIGNIISDAMKKVGRKGVITVKDGKTLNDELEIIEGMKFDRGYISPYFINTSKGQKCEFQDAYVLLSEKKISSIQSIVPALEIANAHRKPLVIIAEDVDGEALSTLVLNRLKVGLQVVAVKAPGFGDNRKNQLKDMAIATGGAVFGEEGLTLNLEDVQPHDLGKVGEVIVTKDDAMLLKGKGDKAQIEKRIQEIIEQLDVTTSEYEKEKLNERLAKLSDGVAVLKVGGTSDVEVNEKKDRVTDALNATRAAVEEGIVLGGGCALLRCIPALDSLTPANEDQKIGIEIIKRTLKIPAMTIAKNAGVEGSLIVEKIMQSSSEVGYDAMAGDFVNMVEKGIIDPTKVVRTALLDAAGVASLLTTAEVVVTEIPKEEKDPGMGAMGGMGGGMGGGMF
0% | 47% | 40% | 48% |  | human mitochondrial Hsp60 R264K/E358K double mutant (natural protein, UniProt P10809 27-573, looked up, human mitochondrial Hsp60 with R264K and E358K, isolated from an error-prone PCR library; also called R264K/E358K mHsp60; source: expressed in bacteria, purified as oligomers) AKDVKFGADARALMLQGVDLLADAVAVTMGPKGRTVIIEQSWGSPKVTKDGVTVAKSIDLKDKYKNIGAKLVQDVANNTNEEAGDGTTTATVLARSIAKEGFEKISKGANPVEIRRGVMLAVDAVIAELKKQSKPVTTPEEIAQVATISANGDKEIGNIISDAMKKVGRKGVITVKDGKTLNDELEIIEGMKFDRGYISPYFINTSKGQKCEFQDAYVLLSEKKISSIQSIVPALEIANAHRKPLVIIAEDVDGEALSTLVLNKLKVGLQVVAVKAPGFGDNRKNQLKDMAIATGGAVFGEEGLTLNLEDVQPHDLGKVGEVIVTKDDAMLLKGKGDKAQIEKRIQEIIEQLDVTTSKYEKEKLNERLAKLSDGVAVLKVGGTSDVEVNEKKDRVTDALNATRAAVEEGIVLGGGCALLRCIPALDSLTPANEDQKIGIEIIKRTLKIPAMTIAKNAGVEGSLIVEKIMQSSSEVGYDAMAGDFVNMVEKGIIDPTKVVRTALLDAAGVASLLTTAEVVVTEIPKEEKDPGMGAMGGMGGGMGGGMF
0% | 30% | 26% |  | 1.43 ratio | human mitochondrial Hsp60 E321K mutant (natural protein, UniProt P10809 27-573, looked up, human mitochondrial Hsp60 with E321K, isolated from an error-prone PCR library; also called E321K mHsp60; source: expressed in bacteria, purified as oligomers) AKDVKFGADARALMLQGVDLLADAVAVTMGPKGRTVIIEQSWGSPKVTKDGVTVAKSIDLKDKYKNIGAKLVQDVANNTNEEAGDGTTTATVLARSIAKEGFEKISKGANPVEIRRGVMLAVDAVIAELKKQSKPVTTPEEIAQVATISANGDKEIGNIISDAMKKVGRKGVITVKDGKTLNDELEIIEGMKFDRGYISPYFINTSKGQKCEFQDAYVLLSEKKISSIQSIVPALEIANAHRKPLVIIAEDVDGEALSTLVLNRLKVGLQVVAVKAPGFGDNRKNQLKDMAIATGGAVFGEEGLTLNLEDVQPHDLGKVGKVIVTKDDAMLLKGKGDKAQIEKRIQEIIEQLDVTTSEYEKEKLNERLAKLSDGVAVLKVGGTSDVEVNEKKDRVTDALNATRAAVEEGIVLGGGCALLRCIPALDSLTPANEDQKIGIEIIKRTLKIPAMTIAKNAGVEGSLIVEKIMQSSSEVGYDAMAGDFVNMVEKGIIDPTKVVRTALLDAAGVASLLTTAEVVVTEIPKEEKDPGMGAMGGMGGGMGGGMF
